{"source": "paper PMC4492089", "about": "“FOXM1 binds directly to non-consensus sequences in the human genome”", "conditions_in_all_cases": "protein: recombinant; tags: GST; label: 5' 6FAM on top strand; blunt", "key": {"[1]": {"target": "T1, FOXM1B DBD WT (GST fusion) (UniProt Q08050-2 235-327)", "T1 sequence": "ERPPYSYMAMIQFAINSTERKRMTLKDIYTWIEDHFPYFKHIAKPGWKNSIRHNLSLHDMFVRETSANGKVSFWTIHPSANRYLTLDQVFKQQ", "assay": "EMSA; FP: 50 mM Tris-HCl pH 7.5, 5 mM MgCl2, 1 mM DTT, 2% glycerol; protein 80 nM-5 uM; temperature not stated"}, "[2]": {"target": "T1, FOXM1B DBD WT (GST fusion)", "assay": "fluorescence polarization; FP: 50 mM Tris-HCl pH 7.5, 5 mM MgCl2, 1 mM DTT, 2% glycerol; protein 80 nM-5 uM; temperature not stated"}, "[3]": {"target": "T2, FOXM1 DBD WT (GST fusion) (UniProt Q08050 235-327)", "T2 sequence": "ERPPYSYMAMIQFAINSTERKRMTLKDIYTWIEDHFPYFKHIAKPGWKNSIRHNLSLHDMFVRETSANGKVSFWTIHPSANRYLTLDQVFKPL", "assay": "fluorescence polarization; FP: 50 mM Tris-HCl pH 7.5, 5 mM MgCl2, 1 mM DTT, 2% glycerol; protein 80 nM-5 uM; temperature not stated"}, "[4]": {"target": "T3, FOXM1 DBD H287A (UniProt Q08050 235-327, H287A)", "T3 sequence": "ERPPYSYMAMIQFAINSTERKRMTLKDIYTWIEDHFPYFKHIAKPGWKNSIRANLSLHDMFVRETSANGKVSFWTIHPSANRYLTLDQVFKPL", "assay": "fluorescence polarization; FP: 50 mM Tris-HCl pH 7.5, 5 mM MgCl2, 1 mM DTT, 2% glycerol; protein 80 nM-5 uM; temperature not stated"}, "[5]": {"target": "T4, FOXM1 DBD S290A (UniProt Q08050 235-327, S290A)", "T4 sequence": "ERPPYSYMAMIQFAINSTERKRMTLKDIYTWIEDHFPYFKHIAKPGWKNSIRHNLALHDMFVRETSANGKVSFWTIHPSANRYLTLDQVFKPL", "assay": "fluorescence polarization; up to 5 uM protein; FP: 50 mM Tris-HCl pH 7.5, 5 mM MgCl2, 1 mM DTT, 2% glycerol; protein 80 nM-5 uM; temperature not stated"}, "[6]": {"target": "T5, FOXM1 DBD R286A (UniProt Q08050 235-327, R286A)", "T5 sequence": "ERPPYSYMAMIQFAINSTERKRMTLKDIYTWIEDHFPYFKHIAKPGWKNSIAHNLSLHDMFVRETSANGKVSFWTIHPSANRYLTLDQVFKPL", "assay": "fluorescence polarization; up to 5 uM protein; FP: 50 mM Tris-HCl pH 7.5, 5 mM MgCl2, 1 mM DTT, 2% glycerol; protein 80 nM-5 uM; temperature not stated"}}}
{"binder": "FKH consensus 16-mer (dsDNA) DNA 1: AAACAAACAAACAATC DNA 2: GATTGTTTGTTTGTTT", "values": [{"measurement": "Kd", "setting": "[1]", "result": "346 ± 24", "unit": "nM"}, {"measurement": "Kd", "setting": "[2]", "result": "224 ± 45", "unit": "nM"}, {"measurement": "Kd", "setting": "[3]", "result": "1100 ± 20", "unit": "nM"}, {"measurement": "Kd", "setting": "[4]", "result": "3040 ± 100", "unit": "nM"}, {"measurement": "binding result", "setting": "[5]", "result": "no binding"}, {"measurement": "binding result", "setting": "[6]", "result": "no binding"}]}
{"binder": "CCNB2 16-mer (dsDNA) DNA 1: ACGCGGTATTTGAATC DNA 2: GATTCAAATACCGCGT", "values": [{"measurement": "Kd", "setting": "[2]", "result": "436 ± 147", "unit": "nM"}]}
{"binder": "HP1BP3 16-mer (dsDNA) DNA 1: CCTCAGCCAATCGGGG DNA 2: CCCCGATTGGCTGAGG", "values": [{"measurement": "Kd", "setting": "[2]", "result": "489 ± 233", "unit": "nM"}]}
{"binder": "MYC P2 TATA box 16-mer (dsDNA) DNA 1: TGAGTATAAAAGCCGG DNA 2: CCGGCTTTTATACTCA", "values": [{"measurement": "Kd", "setting": "[2]", "result": "177 ± 79", "unit": "nM"}]}
